The text below walks through data of patent publication US20180312587A1 (ADURO BIOTECH HOLDINGS EUROPE B V, published 2018).

In assay [1] the target is T1, human SIRPα variant 2 (human, UniProt P78324 31-504).
T1 construct: full length ORF on transfected CHO-K1 cells; also called hSIRPαV2; SIRPαV2
Put plainly: flow cytometry, blockade of DyLight488-hCD47/Fc binding to THP-1 cells. The procedure: (§1) For this purpose, THP-1 (ATCC TIB-202) and U-937 (ATCC CRL-1593.2) monocyte cell lines were used as the source of hSIRPα in the assay. THP-1 and U-937 cells were seeded in 96-well round bottomed tissue culture plates and incubated for 45 minutes with FcR Blocking Reagent (Miltenyi Biotec) and hSIRPα.50A antibody (200 μg/mL and dilutions thereof) in PBS/1% BSA at 4° C. […] After this labeling procedure, cells were washed two times, resuspended in PBS/1% BSA containing 0.1 μg/mL DAPI (BioLegend), and analysed by flow cytometry on the FACSCanto II (BD Biosciences). Data were processed and analysed with FlowJo V10 software (FlowJo, LLC).
(§2) As depicted in FIG. 4 and the following Table 11, binding of recombinant hCD47 fused to an Fc domain of human IgG1 was monitored in the presence of increasing amounts of the hSIRPα.50A antibody. Antibody hSIRPα.50A blocked the hSIRPα/hCD47 interaction, using the flow cytometry-based method described above. […] IC50 values represent the concentration at which half of the inhibition is observed.

For assay [2], the target named is T2, human SIRPα variant 1 (human, UniProt P78324 31-504).
T2 construct: full length ORF on transfected CHO-K1 or HEK293 cells; entry includes the signal peptide; also called hSIRPαV1; SIRPαV1
T2 sequence (P78324 31-504 limits assumed, change not shown): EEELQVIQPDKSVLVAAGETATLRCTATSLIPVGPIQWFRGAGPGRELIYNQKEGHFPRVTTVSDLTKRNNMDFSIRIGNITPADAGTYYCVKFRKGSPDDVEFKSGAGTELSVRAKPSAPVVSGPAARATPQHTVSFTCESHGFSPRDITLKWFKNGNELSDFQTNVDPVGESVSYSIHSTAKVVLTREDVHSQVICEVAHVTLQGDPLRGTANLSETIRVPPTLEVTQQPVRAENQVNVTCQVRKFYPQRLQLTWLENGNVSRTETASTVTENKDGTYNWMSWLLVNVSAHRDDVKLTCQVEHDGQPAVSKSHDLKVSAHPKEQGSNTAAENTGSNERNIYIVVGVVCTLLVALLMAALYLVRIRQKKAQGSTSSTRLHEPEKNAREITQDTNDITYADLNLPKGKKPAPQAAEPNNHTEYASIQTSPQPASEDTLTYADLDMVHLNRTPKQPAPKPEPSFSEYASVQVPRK
Put plainly: flow cytometry, blockade of DyLight488-hCD47/Fc binding to U-937 cells. As to the method: as §1, §2
For orientation: A flow cytometer gives signals particle by particle.

Assay [3] has as its target T3, hSIRPα expressed on primary human cells (human, UniProt P78324 31-504).
T3 construct: whole, on cells; also called hSIRPα on primary human CD14+ monocytes; on primary human granulocytes
Put plainly: flow cytometry, primary CD14+ enriched monocytes, donor 1. As to the method: Next, the binding of hSIRPα.50A to hSIRPα expressed on primary human CD14⁺ monocytes was investigated. In addition, the ability of hSIRPα.50A to block the interaction between hSIRPα and recombinant hCD47/Fc-protein was assessed. For this purpose, CD14+ monocytes were isolated from Ficoll-purified human peripheral blood mononuclear cells (PBMCs) using RosetteSep human monocyte enrichment cocktail (Stemcell). The percentage of monocytes present after the enrichment was determined by flow cytometry on the FACSVerse (BD Biosciences) based on CD14 staining using an APC-Cy7-conjugated mouse-anti-human CD14 detection antibody (BD Biosciences). […] After this labeling procedure, cells were washed two times, resuspended in PBS/1% BSA containing 0.1 μg/mL DAPI (BioLegend), and analysed by flow cytometry on the FACSVerse (BD Biosciences). Data were processed and analysed with FlowJo V10 software (FlowJo, LLC).
To assess the blocking ability of hSIRPα.50A, CD14+ enriched monocytes cells were seeded in 96-well round bottomed tissue culture plates and incubated for 45 minutes with FcR Blocking Reagent (Miltenyi Biotec) and hSIRPα.50A antibody (200 μg/mL and dilutions thereof) in PBS/1% BSA at 4° C. […] After this labeling procedure, cells were washed two times, resuspended in PBS/1% BSA containing 0.1 μg/mL DAPI (BioLegend), and analysed by flow cytometry on the FACSVerse (BD Biosciences). […]

For assay [4], the target named is T4, human SIRPβ1 (human, UniProt O00241 30-398).
T4 construct: also called hSIRPβ1
T4 sequence (O00241 30-398 limits assumed): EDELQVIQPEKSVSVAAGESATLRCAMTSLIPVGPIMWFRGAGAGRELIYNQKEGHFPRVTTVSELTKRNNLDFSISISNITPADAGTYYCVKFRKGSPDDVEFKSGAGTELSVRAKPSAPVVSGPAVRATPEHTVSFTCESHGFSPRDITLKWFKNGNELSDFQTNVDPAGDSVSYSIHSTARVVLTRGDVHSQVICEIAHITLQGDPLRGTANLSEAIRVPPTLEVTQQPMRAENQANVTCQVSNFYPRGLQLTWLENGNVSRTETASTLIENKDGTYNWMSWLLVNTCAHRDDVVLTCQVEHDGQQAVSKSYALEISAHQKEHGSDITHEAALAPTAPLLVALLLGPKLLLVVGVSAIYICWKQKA
Put plainly: CELISA, CHO-K1 transfectants. As to the method: (§3) Reactivity was confirmed using CHO-K1 cells (ATCC CCL-61) expressing a cDNA encoding the full length open reading frame of hSIRPαV1, hSIRPαV1(P74A), hSIRPαV2, and hSIRPβ1 subcloned into the pCI-neo vector (Promega, Madison, Wis.). CHO-K1.hSIRPαV1, CHO-K1.hSIRPαV1(P74A), CHO-K1.hSIRPαV2, and CHO-K1.hSIRPβ1 cells were seeded in culture medium (DMEM-F12 (Gibco) supplemented with 5% New Born Calf Serum (BioWest) and Pen/Strep (Gibco)) in 96-well flat-bottom tissue culture plates and incubated at 37° C., 5% CO₂ and 95% humidity for 24 hours. Subsequently, culture medium was removed and cells were incubated for 1 hour at 37° C., 5% CO₂ and 95% humidity with purified hSIRPα antibodies (used at 10 μg/mL and dilutions thereof). Next, cells were washed with PBS-T and incubated for 1 hour at 37° C., 5% CO₂ and 95% humidity with goat-anti-mouse IgG-HRP (Southern Biotech). Subsequently, cells were washed three times with PBS-T and immunoreactivity against hSIRPαV1, hSIRPαV1(P74A), hSIRPαV2, and hSIRPβ1 was visualized with TMB Stabilized Chromogen (Invitrogen). Reactions were stopped with 0.5 M H₂SO₄ and absorbances were read at 450 and 610 nm.

The target of assay [5] is T5, hSIRPαV1(P74A) (human, UniProt P78324 31-504).
T5 construct: also called P74A variant of hSIRPαV1
The experiment in a line: CELISA, CHO-K1 transfectants. As to the method: as §3

T1 sequence (P78324 other isoform, or with tags, fused parts or gaps mutant limits assumed): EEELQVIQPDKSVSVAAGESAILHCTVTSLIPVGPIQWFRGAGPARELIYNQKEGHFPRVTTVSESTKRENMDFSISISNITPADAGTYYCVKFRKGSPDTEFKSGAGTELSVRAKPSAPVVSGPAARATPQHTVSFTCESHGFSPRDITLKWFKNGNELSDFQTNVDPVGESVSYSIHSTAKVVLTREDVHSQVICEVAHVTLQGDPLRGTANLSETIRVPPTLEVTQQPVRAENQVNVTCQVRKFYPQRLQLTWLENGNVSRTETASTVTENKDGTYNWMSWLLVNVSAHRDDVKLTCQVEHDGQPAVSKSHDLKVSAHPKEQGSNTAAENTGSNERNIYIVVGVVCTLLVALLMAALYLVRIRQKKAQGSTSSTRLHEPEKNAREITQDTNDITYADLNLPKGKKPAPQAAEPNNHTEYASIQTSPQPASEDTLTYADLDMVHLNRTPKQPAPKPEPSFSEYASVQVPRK
T3 sequence (P78324 31-504): as the sequence (P78324 31-504 limits assumed, change not shown) above

B1: hSIRPα.50A (antibody, V domains shown)
VH: QVQLQQSGPELVKPGASVRISCKASGFTFTNYYIHWVKQRPGQGLEWIGWIYPGNVNTKYNEKFKAKATLTADKSSTTAYMQLSSLASEDSAVYFCARPTIIATDFDVWGAGTTVTVSS
VL: DIVMTQSHKFMSTSVGDRVNITCKASQGVGTAVGWYQQKPGQSPRLLIYWASTRHTGVPDRFTGSGSGTDFSLAISNVQSEDLADYFCQQYSTYPFTFGGGTNLEIK
notes: light chain constant domain not tied; also called mouse hSIRPα.50A; hSIRPα.50A.mIgG1
In general, IC50 refers to the concentration that gives 50% inhibition. Usually EC50 stands for the concentration giving half of the maximal effect. The low end stands for higher potency in that assay, the high end for lower potency in that assay. On to B1, for which the IC50 was 4.61 nM in assay [1] and 7.16 nM in assay [2]. In addition, the midpoint of the response in assay [3], the EC50, lay at 7.38 nM.

B2: KWAR23 (antibody, V domains shown)
VH: EVQLQQSGAELVKPGASVKLSCTASGFNIKDYYIHWVQQRTEQGLEWIGRIDPEDGETKYAPKFQDKATITADTSSNTAYLHLSSLTSEDTAVYYCARWGAYWGQGTLVTVSS
VL: QIVLTQSPAIMSASPGEKVTLTCSASSSVSSSYLYWYQQKPGSSPKLWIYSTSNLASGVPARFSGSGSGTSYSLTISSMEAEDAASYFCHQWSSYPRTFGAGTKLELK
Turning to B2, the concentration for a half-maximal effect (EC50) in assay [4] was found to be 0.033 nM; in assay [5], 0.049 nM.
